Reference: patent US20030216563

Columns and labels:
[1] = biological target: GST:Weel^70
[2] = biological target: GST:Weel^152
Sequence of GST:Weel^152 (chain, as listed by the source): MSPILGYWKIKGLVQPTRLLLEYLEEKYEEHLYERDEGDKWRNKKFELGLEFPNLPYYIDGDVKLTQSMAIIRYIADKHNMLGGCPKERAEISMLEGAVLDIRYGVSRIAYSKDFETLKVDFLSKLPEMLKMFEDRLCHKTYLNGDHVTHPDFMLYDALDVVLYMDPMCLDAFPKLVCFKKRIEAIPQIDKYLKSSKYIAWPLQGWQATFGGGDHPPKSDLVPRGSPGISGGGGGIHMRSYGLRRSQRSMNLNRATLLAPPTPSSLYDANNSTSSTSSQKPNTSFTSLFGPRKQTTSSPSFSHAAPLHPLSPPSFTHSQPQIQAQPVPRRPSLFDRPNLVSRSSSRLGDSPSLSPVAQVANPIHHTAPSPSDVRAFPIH

Sequence of GST:Weel^70 (chain, as listed by the source): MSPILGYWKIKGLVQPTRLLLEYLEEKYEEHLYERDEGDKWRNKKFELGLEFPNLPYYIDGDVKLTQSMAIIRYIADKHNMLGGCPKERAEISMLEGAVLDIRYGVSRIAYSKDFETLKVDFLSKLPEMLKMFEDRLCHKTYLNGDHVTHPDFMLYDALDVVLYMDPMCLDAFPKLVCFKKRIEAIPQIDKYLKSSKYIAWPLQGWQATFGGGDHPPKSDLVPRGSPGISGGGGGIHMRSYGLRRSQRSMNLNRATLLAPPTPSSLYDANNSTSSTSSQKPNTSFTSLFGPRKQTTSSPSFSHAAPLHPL

B1: Cds1 (protein)
chain: MEEPEEATQATQEAPLHVSQNIAKQVVNNENVFMKLVMTRMLDGKTEVIPLTTDVHNGFWRFGRHKSCEVVLNGPRVSNFHFEIYQGHRNDSDESENVVFLHDHSSNGTFLNFERLAKNSRTILSNGDEIRIGLGVPKDEISFLCQVPVKHSRDSQKNMIKSENSHYEIIRTLGSGTFAVVKLAVEVNSGKWYAIKIINKRKILLTSSEKRATEMFQREIDILKSLHHPGVVQCHEIFENDDELFIVMEYVEGGDLMDFLIANGSIDEQDCKPLLKQLLETLLHLHKQGVTHRDIKPENILITNDFHLKISDFGLAKVIHGTGTFLETFCGTMGYLAPEVLKSKNVNLDGGYDDKVDIWSLGCVLYVMLTASIPFASSSQAKCIELISKGAYPIEPLLENEISEEGIDLINRMLEINPEKRISESEALQHPWFYTVSTHEHRTPPSSSEHEATEQLNSSS
[1]
  in vitro phosphorylation, two-dimensional tryptic phosphopeptide map: Cds1 purified from fission yeast phosphorylated GST:Weel^70 in vitro, producing a two-dimensional tryptic phosphopeptide map that was identical to a map made from GST:Weel^70 phosphorylated by its associated kinase
[2]
  phosphorylation by bead-associated kinase with [gamma-32P]ATP: GST:Weel^152 is phosphorylated by this kinase and another that is active prior to HU treatment
